Measured values: patent US12606635B2, “Glypican-2-binding moieties, chimeric antigen receptors and uses thereof” (Nanjing Legend Biotech Co., Ltd., priority 2020, dated 2026)

B1: CAS71529VH6-AS70950VH6-BBz: bivalent tandem anti-GPC2 CAR (4-1BB, CD3ζ), SEQ ID NO: 242; tested as CAR T cells (protein)
chain: MALPVTALLLPLALLLHAARPEVQLVESGGGLVQPGGSLRLSCAVSEYRYSSRYCMGWFRQAPGKGREGVAAIDSNGSADYVDSVKGRFTISKDNSKNTLYLQMNSLRAEDTAMYYCAADHLAYDCYSGATSVFRYWGQGTLVTVSSGGGGSGGGGSGGGGSEVQLVESGGGLVQPGGSLRLSCAISEFTYKNTCVGWFRQAPGKGREGVAAIDSDGNTNYVDSVKGRFTISQDNSKNTVYLQMNSLRAEDTAMYYCAAGAYCGRLLLWIGNYAYWGQGTLVTVSSTTTPAPRPPTPAPTIASQPLSLRPEACRPAAGGAVHTRGLDFACDIYIWAPLAGTCGVLLLSLVITLYCKRGRKKLLYIFKQPFMRPVQTTQEEDGCSCRFPEEEEGGCELRVKFSRSADAPAYKQGQNQLYNELNLGRREEYDVLDKRRGRDPEMGGKPRRKNPQEGLYNELQKDKMAEAYSEIGMKGERRRGKGHDGLYQGLSTATKDTYDALHMQALPPR
modifications: expressed in CAR T cells; CAS71529VH6-AS70950VH6-BBz
B2: CAS72052VH5-AS71529VH5-BBz: bivalent tandem anti-GPC2 CAR (4-1BB, CD3ζ), SEQ ID NO: 240; tested as CAR T cells (protein)
chain: MALPVTALLLPLALLLHAARPQVQLVESGGGVVQPGGSLRLSCAVSGFRYASYCMGWFRQAPGKGLEGVAAIHSDGIIRYAESVKGRFTISKDNSKNTLYLQMNSLRAEDTAVYYCAAGAYCGADAILTLYDYAFWGQGTLVTVSSGGGGSGGGGSGGGGSEVQLVESGGGLVQPGGSLRLSCAVSEYRYSSRYCMGWFRQAPGKGLEGVSAIDSNGSADYVDSVKGRFTISKDNSKNTLYLQMNSLRAEDTAVYYCAADHLAYDCYSGATSVFRYWGQGTLVTVSSTTTPAPRPPTPAPTIASQPLSLRPEACRPAAGGAVHTRGLDFACDIYIWAPLAGTCGVLLLSLVITLYCKRGRKKLLYIFKQPFMRPVQTTQEEDGCSCRFPEEEEGGCELRVKFSRSADAPAYKQGQNQLYNELNLGRREEYDVLDKRRGRDPEMGGKPRRKNPQEGLYNELQKDKMAEAYSEIGMKGERRRGKGHDGLYQGLSTATKDTYDALHMQALPPR
modifications: expressed in CAR T cells; CAS72052VH5-AS71529VH5-BBz
B3: CAS72669VH6-BBz: humanized VHH anti-GPC2 CAR (4-1BB, CD3ζ), SEQ ID NO: 226; tested as CAR T cells (protein)
chain: MALPVTALLLPLALLLHAARPQVQLVESGGGVVQPGGSLRLSCAASRFTYSSYCMGWIRQAPGKGREGVAIFYTGGGRTYYADSVKGRFTISQDNSKNTLYLQMNSLRAEDTAVYYCVAGFYCSGGYWEGDFGYWGQGTLVTVSSTTTPAPRPPTPAPTIASQPLSLRPEACRPAAGGAVHTRGLDFACDIYIWAPLAGTCGVLLLSLVITLYCKRGRKKLLYIFKQPFMRPVQTTQEEDGCSCRFPEEEEGGCELRVKFSRSADAPAYKQGQNQLYNELNLGRREEYDVLDKRRGRDPEMGGKPRRKNPQEGLYNELQKDKMAEAYSEIGMKGERRRGKGHDGLYQGLSTATKDTYDALHMQALPPR
modifications: expressed in CAR T cells; CAS72669VH6-BBz
B4: CAS79236VH6-BBz: humanized VHH anti-GPC2 CAR (4-1BB, CD3ζ), SEQ ID NO: 233; tested as CAR T cells (protein)
chain: MALPVTALLLPLALLLHAARPEVQLVESGGGLVQPGGSLRLSCAVSGYTYSSYCMAWFRQAPGKGLEGVASIDAGGRTTYVDSVKGRFTISKDNAKNSLYLQMNSLRAEDTAMYYCAVDVRTRCGGTWDGEAVYFPYWGQGTLVTVSSTTTPAPRPPTPAPTIASQPLSLRPEACRPAAGGAVHTRGLDFACDIYIWAPLAGTCGVLLLSLVITLYCKRGRKKLLYIFKQPFMRPVQTTQEEDGCSCRFPEEEEGGCELRVKFSRSADAPAYKQGQNQLYNELNLGRREEYDVLDKRRGRDPEMGGKPRRKNPQEGLYNELQKDKMAEAYSEIGMKGERRRGKGHDGLYQGLSTATKDTYDALHMQALPPR
modifications: expressed in CAR T cells; CAS79236VH6-BBz
B5: CAS78117VH4-BBz: humanized VHH anti-GPC2 CAR (4-1BB, CD3ζ), SEQ ID NO: 227; tested as CAR T cells (protein)
chain: MALPVTALLLPLALLLHAARPEVQLVESGGGLVQPGGSLRLSCIVSRYTYATYSMAWFRQAPGKGLEGVSGLDSVGATGYAESVKGRFTISRDNSKNTLYLQMNSLRAEDTAVYYCVVDPASAKVTYGSWSTPSYAYWGQGTLVTVSSTTTPAPRPPTPAPTIASQPLSLRPEACRPAAGGAVHTRGLDFACDIYIWAPLAGTCGVLLLSLVITLYCKRGRKKLLYIFKQPFMRPVQTTQEEDGCSCRFPEEEEGGCELRVKFSRSADAPAYKQGQNQLYNELNLGRREEYDVLDKRRGRDPEMGGKPRRKNPQEGLYNELQKDKMAEAYSEIGMKGERRRGKGHDGLYQGLSTATKDTYDALHMQALPPR
modifications: expressed in CAR T cells; CAS78117VH4-BBz

Experiments:
[1] = tested on: human neuroblastoma cell line SH-SY5Y; experiment: In vitro cytotoxicity assay (LDH), SH-SY5Y; format: cell-based; settings: SH-SY5Y, effector to target ratio 10:1, 20 hours, FIG. 8A
Description: (§1) The pre-activated T cells were transduced with lentivirus stock in the presence of […] polybrene and 300 IU/mL IL-2. T cells and lentivirus were centrifuged at 1000 g, 32° C. for 1 h and placed in humidified cell culture incubator for transgene expression under suitable conditions. On day 5 or day 7 or day 10 post-transduction, transduced T cells were harvested and co-incubated with tumor cells at an effector (CAR T) to target cell ratio of 10:1 or 5:1 or 2:1 or 1:1 or 0.2:1 for 20 hours. Target cells were human neuroblastoma cell line SH-SY5Y (ATCC, #CRL-2266), human neuroblastoma cell line IMR-32 cells (ATCC, #CCL-127), or human epidermoid carcinoma cell line A-431 (ATCC, #CRL-1555). To assay the cytotoxicity of CAR T cells on tumor cells, the Cytotoxicity Detection Kit (LDH) (Roche, #11644793001) assay reagents were prepared according to manufacturer's protocol. Reaction mix was added to the cell-free supernatant of each sample to detect the LDH released from cells. Optical densities at OD492 nm and OD650 nm were measured by PHERStar Microplate Reader. Baseline LDH released from the target cell in the absence of effector cells and effector cell in the absence of target cells were subtracted from the total LDH amount. The target maximum release was obtained by adding Triton-X100 at a final concentration of 1% to target cells in the absence of effector cells at the time when the cytotoxicity assays initiated. Supernatant from target cells in the absence of effector cells was used for target minimum release. The specific cytotoxicity was calculated by the formula: % Target cell lysis=100*[(OD CAR T cell+Target cell)−(OD CAR T cell)−(OD Target cell)+(OD Buffer background)]/(OD Target Maximum release−OD Target Minimum release).
(§2) On day 5 or day 8 or day 10 post-transduction, transduced T cells were harvested and co-incubated with tumor cells at an effector (CAR T) to target cell ratio of 10:1 or 1:1 or 0.2:1 for 20 hours. To assay the cytotoxicity of CAR T cells on tumor cells, the Cytotoxicity Detection Kit (LDH) (Roche, #11644793001) was added to the culture supernatant and the specific cytotoxicity for each CAR T cell construct was measured as described in Example 6.

IMR-32 = experiment: IFNγ release in co-culture with IMR-32; format: cell-based, human; settings: Example 7, co-culture with IMR-32, FIG. 8D-8F
Source text: (§3) In addition to the cytotoxicity data above, supernatants from the in vitro co-culture assays were also collected to assess CAR T cells-induced cytokine release, e.g., release of interferon gamma (i.e., IFNγ), as another indicator of cytotoxicity, was quantified using a HTRF human IFNγ AlphaLISA kit (Perkin Elmer, #62HIFNGPEH) per manufacturer's instruction. […] No significant cytokine release were detected against GPC2-negative cell line A-431.
(§4) Supernatants from the in vitro co-culture assays were collected to assess CAR T cells-induced cytokine release, e.g., interferon gamma (i.e., IFNγ) release as described in Example 6. […] IFNγ was not induced in GPC2-negative A-431 cells. […] Cytokine release data was consistent with the in vitro cytotoxicity data.

SH-SY5Y = experiment: IFNγ release in co-culture with SH-SY5Y; format: cell-based, human; settings: Example 7, co-culture with SH-SY5Y, FIG. 8D-8F
Source text: as §3, §4

[2] = tested on: human neuroblastoma cell line IMR-32; experiment: In vitro cytotoxicity assay (LDH), IMR-32; format: cell-based; settings: co-cultured with IMR-32, FIG. 8C
Description: as §1, with “Supernatant from target cells in the absence of effector cells was used for target minimum release.” left out
as §2

[3] = tested on: GPC2 negative human epidermoid carcinoma cell line A-431; experiment: In vitro cytotoxicity assay (LDH), A-431; format: cell-based; settings: FIG. 7G
Description: as §1, with “Supernatant from target cells in the absence of effector cells was used for target minimum release.” left out
as §2

[4] = tested on: neuroblastoma SH-SY5Y xenograft; format: in vivo, NCG mice
Description: A single dose of untransduced T cells (10×10^6) or CAR T cells (5×10^6) was administered intravenously to tumor engrafted mice 9 days after tumor inoculation (FIG. 9A). […] At the end of obversion, 100% of monovalent CAR T cells (CAS70950VH6-BBz, CAS72669VH6-BBz) and 80% of multi-valent CAR T cells (CAS70950VH6-AS71529VH6-BBz) treated mice were alive (FIG. 9A). At day 42 post treatment, 2/5 mice (40%) treated with CAS72669VH6-BBz expressing CAR T cells were tumor-free and 3/5 mice (60%) treated with CAS70950VH6-AS71529VH6-BBz expressing CAR T cells were tumor-free without recurrence. […] The data highlighted the superiority of VHH-based CAR T cells in tumor regression and protection of mice from disease progression.
Moreover, the expansion and persistence of CAR T cells in vivo are also considered as critical predictors of durable clinical tumor regression in patients with cancer. […] Average 5.00±6.42% of CAR T cells were found in the peripheral blood of NCG mice treated with 5×10^6 CAS70950VH6-AS71529VH6-BBz CAR T cells, whereas less than 1% CAR T cells were detected in CAS70950VH6-BBz, CAS72669VH6-BBz and CAS71529VH6-BBz expressing CAR T groups. Expansion of CAR T cells in the CAS70950VH6-AS71529VH6-BBz group was inversely correlated with tumor size over time.

[5] = 5×10^6 CAR T cells i.v., FIG. 9A

Molecule	specific percentage lysis [1] [%]	IFNγ release (IMR-32)	IFNγ release (SH-SY5Y)	cytolytic activity compared with monovalent CAR T cells [2]	cytotoxicity against GPC2 negative A-431 [3]	further results
B1	70.33±4.93	high levels of IFNγ	high levels of IFNγ	equivalent or better cytolytic activity		
B2	83.00±4.58	high levels of IFNγ	high levels of IFNγ	equivalent or better cytolytic activity		
B3					no cytotoxicity	treated mice alive at the end of observation [4, 5]: 100%; tumor regression compared with CAS71529VH6-BBz [4, 5]: more pronounced; tumor-free mice (number of mice) ([4]; day 42 post treatment): 2/5; tumor-free mice (percent) ([4]; day 42 post treatment): 40%; tumor burden compared with untransduced T cell-treated group ([4]; fourteen days after treatment, 5×10^6 CAR T cells i.v., FIG. 9A): reduced tumor burden; percentage of CAR T cells in peripheral blood ([4]; mouse, in vivo): less than 1%
B4					no cytotoxicity	
B5					no cytotoxicity	
